US10450368 (DUKE UNIVERSITY, dated 2019)

Key:
[1] = target: T1, RNP (ribonucleoprotein); assay: AtheNA, Ab 6.25 ug/ml
T1 construct: Protein-RNA complex
Excerpt: (§1) AtheNA Multi-Lyte ANA Plus Test System is one such assay. This is luminex-based assay, which is also used to screen patient sera.

[2] = target: T2, SSA; assay: AtheNA, Ab 6.25 ug/ml
T2 construct: also called SSA (Ro)
Excerpt: as §1

[3] = target: T3, Centromere B (UniProt P07199 1-599); assay: AtheNA, Ab 6.25 ug/ml
T3 construct: also called Cent B
T3 sequence: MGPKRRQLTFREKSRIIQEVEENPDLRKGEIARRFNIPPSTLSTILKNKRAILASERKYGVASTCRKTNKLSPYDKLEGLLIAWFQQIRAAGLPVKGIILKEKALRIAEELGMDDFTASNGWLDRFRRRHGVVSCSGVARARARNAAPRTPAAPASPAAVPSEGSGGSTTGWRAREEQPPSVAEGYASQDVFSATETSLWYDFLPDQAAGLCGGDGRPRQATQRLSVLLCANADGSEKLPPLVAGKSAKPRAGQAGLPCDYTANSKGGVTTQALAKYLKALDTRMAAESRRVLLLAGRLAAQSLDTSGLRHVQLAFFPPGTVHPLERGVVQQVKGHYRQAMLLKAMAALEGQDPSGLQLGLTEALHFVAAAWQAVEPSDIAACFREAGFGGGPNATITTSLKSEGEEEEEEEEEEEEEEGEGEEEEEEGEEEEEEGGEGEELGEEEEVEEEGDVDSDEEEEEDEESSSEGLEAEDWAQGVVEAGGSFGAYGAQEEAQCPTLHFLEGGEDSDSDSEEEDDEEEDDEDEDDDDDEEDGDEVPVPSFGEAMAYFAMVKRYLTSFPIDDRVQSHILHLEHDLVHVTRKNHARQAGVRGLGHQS
Excerpt: as §1

[4] = target: T4, Histones; assay: AtheNA, Ab 6.25 ug/ml
T4 construct: Mixture of proteins
Excerpt: as §1

[5] = target: T5, Sm (Smith antigen); assay: AtheNA, Ab 6.25 ug/ml
T5 construct: Protein complex
Excerpt: as §1

[6] = target: T1, RNP (ribonucleoprotein); assay: AtheNA, Ab 50 ug/ml
Excerpt: as §1

[7] = target: T2, SSA; assay: AtheNA, Ab 50 ug/ml
Excerpt: as §1

[8] = target: T3, Centromere B; assay: AtheNA, Ab 50 ug/ml
Excerpt: as §1

[9] = target: T4, Histones; assay: AtheNA, Ab 50 ug/ml
Excerpt: as §1

[10] = target: T5, Sm (Smith antigen); assay: AtheNA, Ab 50 ug/ml
Excerpt: as §1

[11] = target: CH505.TF gp120 delta371I; assay: direct-binding ELISA (OD450), panel 'CH505.TF gp120 delta371I'
[12] = target: CH505w136.B18D8gp120; assay: ELISA
[13] = target: CH505.M11D8gp120/293F; assay: ELISA
[14] = target: T6, CH505.TF mutant gp120 M6 (HIV-1); assay: ELISA
T6 construct: domain: gp120

[15] = target: CH505.M7D8gp120/293F; assay: ELISA
[16] = target: T7, CH505.TF mutant gp120 M20 (HIV-1); assay: ELISA
T7 construct: domain: gp120

[17] = target: CH505.M21D8gp120/293F; assay: ELISA
[18] = target: CH505.M5D8gp120293F; assay: ELISA
[19] = target: CH505.M19D8gp120; assay: ELISA
[20] = target: CH505.M10D8gp120; assay: ELISA
[21] = target: T8, CH505.TF mutant gp120 M8 (HIV-1); assay: ELISA
T8 construct: domain: gp120

[22] = target: CH505.M9D8gp120/293F; assay: ELISA
[23] = target: Con S gp120; assay: direct-binding ELISA (OD450), panel 'Con S gp120'
[24] = target: T9, CH505w020.14D8gp120; assay: ELISA
T9 construct: also called CH505w20.14 gp120

[25] = target: CH0505_CON D7gp120/293i; assay: ELISA
[26] = target: T10, CH505w030.20D8gp120/293F; assay: ELISA
T10 construct: also called CH505w30.20 gp120

[27] = target: T11, CH505.w30.12D8gp120; assay: ELISA
T11 construct: also called CH505w30.12 gp120

[28] = target: T1, RNP (ribonucleoprotein); assay: AtheNA, Ab 12.5 ug/ml
Excerpt: as §1

[29] = target: T2, SSA; assay: AtheNA, Ab 12.5 ug/ml
Excerpt: as §1

[30] = target: T3, Centromere B; assay: AtheNA, Ab 12.5 ug/ml
Excerpt: as §1

[31] = target: T4, Histones; assay: AtheNA, Ab 12.5 ug/ml
Excerpt: as §1

[32] = target: T5, Sm (Smith antigen); assay: AtheNA, Ab 12.5 ug/ml
Excerpt: as §1

[33] = target: T6, CH505.TF mutant gp120 M6; assay: direct-binding ELISA (OD450), panel 'CH505.TF gp120 M6'
[34] = target: T1, RNP (ribonucleoprotein); assay: AtheNA, Ab 25 ug/ml
Excerpt: as §1

[35] = target: T2, SSA; assay: AtheNA, Ab 25 ug/ml
Excerpt: as §1

[36] = target: T3, Centromere B; assay: AtheNA, Ab 25 ug/ml
Excerpt: as §1

[37] = target: T4, Histones; assay: AtheNA, Ab 25 ug/ml
Excerpt: as §1

[38] = target: T5, Sm (Smith antigen); assay: AtheNA, Ab 25 ug/ml
Excerpt: as §1

B1: CH491 (antibody, V domains shown)
VH: QVQLVQSGAAVKRPGASVTISCRASGYTFTTYYIHWVRQAPGQGLELMGWINPRGGRTDYSYRFEDRVSMYRDTSMSIVYMDLRNLKSADTAVYYCVRNVGTSGSLLHYDFWGQGSLVTVSS
VL: EIVLTQSPATLSVSPGERVTLSCRASQSVRNNLAWYRQKRGQAPRLLIYGASTRATGIPARFSGSGSGTEFTLTISSMQSEDFAVYYCQQYNNWWTFGQGTKVEIK
notes: also called CH235.7; DH491
[1]
  AtheNA signal: 18
[2]
  AtheNA signal: 21
[3]
  AtheNA signal: 26
[4]
  AtheNA signal: 26
[5]
  AtheNA signal: 4
[6]
  AtheNA signal: 43
[7]
  AtheNA signal: 68
[8]
  AtheNA signal: 54
[9]
  AtheNA signal: 59
[10]
  AtheNA signal: 6
[11]
  EC50 (read off the curve): ~8 µg/mL
[12]
  LogAUC: 3.53
[13]
  LogAUC: 6.75
[14]
  LogAUC: 9.21
[15]
  LogAUC: 0
[16]
  LogAUC: 0
[17]
  LogAUC: 0
[18]
  LogAUC: 10.6
[19]
  LogAUC: 6.61
[20]
  LogAUC: 10.6
[21]
  LogAUC: 0
[22]
  LogAUC: 0
[23]
  EC50 (read off the curve): ~0.05 µg/mL
[24]
  LogAUC: 9.35
[25]
  LogAUC: 9.64
[26]
  LogAUC: 8.82
[27]
  LogAUC: 3.89
[28]
  AtheNA signal: 24
[29]
  AtheNA signal: 28
[30]
  AtheNA signal: 34
[31]
  AtheNA signal: 34
[32]
  AtheNA signal: 3
[33]
  EC50 (read off the curve): ~0.2 µg/mL
[34]
  AtheNA signal: 30
[35]
  AtheNA signal: 44
[36]
  AtheNA signal: 45
[37]
  AtheNA signal: 44
[38]
  AtheNA signal: 4
